Results from US20250340632A1 (OSE IMMUNOTHERAPEUTICS, published 2025).
Read-outs that look alike come from different tables or passages of the source. Each block holds one molecule with its values, some of them ahead of it.

Key:
[1] = biological target: human SIRPg protein at the surface of cells (human T lymphocyte Jurkat cell line; T cells in PBMC) (human) (UniProt Q9P1W8); assay: cytofluorometry (MFI) on human Jurkat cells, ED50
[2] = biological target: human SIRPg protein at the surface of cells (human T lymphocyte Jurkat cell line; T cells in PBMC) (human) (UniProt Q9P1W8); assay: cytofluorometry on Jurkat cells, % of positive cells (not the MFI readout of Table 5)
[3] = biological target: T1, human SIRPg protein at the surface of cells (human T lymphocyte Jurkat cell line; T cells in PBMC) (human, UniProt Q9P1W8 29-387); assay: cytofluorometry (MFI) on human Jurkat cells, ED50
T1 construct: whole, on cells; also called SIRPg on Jurkat cells
Procedure: To measure binding of mouse anti-hSIRPg on human cell lines, cells were first washed in cold-PSE (Phosphate Buffer Saline with 2% of heat-inactivated bovine serum, 2 mM EDTA), blocked for 30 min at room temperature with a mix of 50-fold diluted human Fc-block (#564220, BD Pharmingen) and 20-fold diluted/heat-inactivated human serum (SAB, # H4522-100, Sigma Aldrich) and then incubated for 10 min on ice to slow the cell metabolism. Antibodies in range were incubated for 30 min on ice, and cells were washed with cold-PSE before staining for 30 min on ice with an Alexa 647-labelled goat anti-mouse IgG at 5 μg/ml (#A21236; Fisher Scientific, Illkirch, France). Samples were analyzed on CytoFlex cytofluorometer (Beckman Coulter France, Villepinte).

[4] = biological target: T2, recombinant human SIRPg protein with His Tag (#11828-H08H, Sino Biological) (human, UniProt Q9P1W8 29-360, biotinylated in the ELISA binding assay (sites not given)); assay: SIRPg binding ELISA, DO 450 nm (legend: immobilized SIRPg-His at 1 µg/ml; method 1.4: captured antibody, biotinylated SIRPg)
T2 construct: Bought protein; also called human SIRPg His; SIRPg-His

[5] = biological target: T2, recombinant human SIRPg protein with …; assay: as above; remark: listed apart in the source
[6] = biological target: T3, recombinant human SIRPa protein with His Tag (#11612-H08H, Sino Biological) (human, UniProt P78324 31-370); assay: ELISA on immobilized SIRPa, ED50
T3 construct: Bought protein; also called human SIRPa His; SIRPa-His

[7] = biological target: human SIRPa on SIRPa positive U937 human monocyte cell line (human) (UniProt P78324); assay: binding to U937 cells expressing SIRPa, ED50
[8] = biological target: T3, recombinant human SIRPa protein with …; assay: competition ELISA on immobilized SIRPa-His against biotinylated CD47-Fc at 3 µg/ml, streptavidin-peroxidase detection [lower graph]

Molecule: OX119 antibody (SantaCruz reference sc-53114)
EC50 [1]: 3.88 µg/mL
EC50 (read off the curve) [2]: 0.2 µg/mL

B2: 13F7 recombinant chimeric anti-SIRPg antibody (antibody, human IgG4 S228P, kappa, V domains shown)
VH: QVQLQQSGAELVRPGVSVKVSCKGSGYTFTDYAMHWVKQSHPKSLEWIGVIGTYYGDAYYNQNFKGKATMTVDKSSSTAYMELARLTSEDSAIYYCARRAGTSDWFAYWGQGTLVTVSA
VL: NIVLTQSPASLAVSLGQRATISCRASESVDSYGNSFMHWYQQKPGQPPKLLIYRASNLESGIPARFSGSGSRTDFTLTINPVEADDVATYYCQQSNEDPPTFGGGTKLEIKR
notes: Mouse VH/VL on human IgG4 (S228P) and human CL kappa
EC50 [3]: 0.281 µg/mL

B3: 3H8 recombinant chimeric anti-SIRPg antibody (antibody, human IgG4 S228P, kappa, V domains shown)
VH: QIQLVQSGPELKKPGETVNISCMASGYSFTNYGMNWVKQAPGKGLKWMGWINTYTGEPTYADDFKGRFAFSLETSASTAYLQINNLKNEDMATYFCARQPYDYVPSFPYWGQGTLVTVSA
VL: DIVMTQSHKFMSTSVGDRVNITCKASQDVSTAVAWYQLKPGQSPKLLIYWASIRHTGVPDRFTGSGSGTDYTLTISSVQAEHLALYYCQQHYSTPWTFGGGTKLEIKR
notes: as for B2
EC50 [3]: 0.083 µg/mL

Now from value to molecule:

EC50 [1]: 6.97 µg/mL
EC50 (read off the curve) [2]: 0.2 µg/mL
Molecule: LSB2.20 antibody (Biolegend, reference 336602)

EC50 [3]: 0.195 µg/mL
EC50 (read off the curve) [4]: ~0.007 µg/mL
EC50 (read off the curve) [5]: ~0.006 µg/mL
B1: 11B5 recombinant chimeric anti-SIRPg antibody (antibody, human IgG4 S228P, kappa, V domains shown)
VH: EVQLVESGGDLVKPGGSLKLSCAASGFAFSDYYMYWVRQTPEKRLEWVATISDDGIYTYYPDSVKGRFTISRDNAKNNLFLQMSSLKSEDTAMYYCARGGYRDYYAMDYWGQGTSVTVSS
VL: DIQMTQSPASLSASVGETVTITCRASENIYSYLAWYQQKQGKSPQLLVYNGITLAEGVPSRFSGSGSGTQFSLKINSLQPEDFGDYYCQHHYGSPRTFGGGTTLEIKR
notes: as for B2

EC50 [3]: 0.156 µg/mL
EC50 (read off the curve) [4]: ~0.02 µg/mL
B4: 26F10 recombinant chimeric anti-SIRPg antibody (antibody, human IgG4 S228P, kappa, V domains shown)
VH: EVQLQQSGTELVRSGASVKLSCTTSGFNIKDYYMHWVKQRPEQGLEWIGWIDPENGDTEYAPKFQGKATMTADTSSNTAYLQLSSLTSEDTAVYYCNAYDGYYGAMDYWGQGTSVTVSS
VL: DVVMPQTPLSLPVSLGDQASISCRSSQSLVHSNGNTYLHWYLQKPGQSPKLLIYKVSNRFSGVPDRFSGSGSGTDFTLKISRVEAEDLGVYFCSQNTHVPLTFGAGTKLELKR
notes: as for B2

EC50 [6]: 0.00469 µg/mL
EC50 [7]: 0.0719 µg/mL
EC50 (read off the curve) [4]: ~0.01 µg/mL
EC50 (read off the curve) [5]: ~0.006 µg/mL
IC50 (read off the curve) [8]: ~0.7 µg/mL
B5: Kwar23 antibody (antibody, V domains shown)
VH: EVQLQQSGAELVKPGASVKLSCTASGFNIKDYYIHWVQQRTEQGLEWIGRIDPEDGETKYAPKFQDKATITADTSSNTAYLHLSSLTSEDTAVYYCARWGAYWGQGTLVTVSS
VL: QIVLTQSPAIMSASPGEKVTLTCSASSSVSSSYLYWYQQKPGSSPKLWIYSTSNLASGVPARFSGSGSGTSYSLTISSMEAEDAASYFCHQWSSYPRTFGAGTKLELK

EC50 [3]: 0.426 µg/mL
B6: 2H9 recombinant chimeric anti-SIRPg antibody (antibody, human IgG4 S228P, kappa, V domains shown)
VH: DVQLVESGGGLVQPGGSRKLSCAASGFTFSSFGMHWVRQAPEKGLEWVAYISSGSTTIYYADTVKGRFTISRDNPKNTLFLQMTSLRSEDTAMYFCARWTVVTNCFDYWGQGTTLTVSS
VL: QIVLTQSPALMSASPGEKVTMTCSASSSISSMYWYQQKPRSSPKPWIYLTSNLASGVPARFSGSGSGTSYSLTISSMEAEDAATYYCQQWSSNLTFGAGTKLELKR
notes: Mouse VH/VL on human IgG4 (S228P)
